Data: article PMC4773404
pKd: −log10 of the molar value.

Tests used:
Assay in all cases: SPR; Biacore T200; receptor domains amine-coupled to CM5-S Series chips; analytes 0-20 nM flowed over; 10 mM HEPES, 150 mM NaCl, 3 mM EDTA, 0.05% surfactant P20, pH 7.4; double-referenced; 1:1 Langmuir fit
[1] = target: p75NTR extracellular domain (p75NTR ECD) (UniProt P08138)
[2] = target: SorCS2 luminal domain (LD)
[3] = target: sortilin luminal domain (LD)

Chain of p75NTR extracellular domain (p75NTR ECD) (P08138 29-250): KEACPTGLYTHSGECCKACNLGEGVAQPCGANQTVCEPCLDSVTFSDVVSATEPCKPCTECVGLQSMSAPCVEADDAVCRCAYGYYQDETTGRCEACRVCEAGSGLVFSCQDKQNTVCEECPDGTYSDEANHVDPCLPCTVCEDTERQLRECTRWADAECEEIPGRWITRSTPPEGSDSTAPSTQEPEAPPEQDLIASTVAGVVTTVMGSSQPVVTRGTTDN

Substance	pKd [1]	koff [1] [s⁻¹]	kon [1] [M⁻¹ s⁻¹]	pKd [2]	koff [2] [s⁻¹]	kon [2] [M⁻¹ s⁻¹]	pKd [3]	koff [3] [s⁻¹]	kon [3] [M⁻¹ s⁻¹]
human proBDNF Met66, furin cleavage-resistant (FCR) (natural protein)	8.64	0.00325	1.55e+06	8.65	0.00453	2.14e+06	8.42	0.00504	1.56e+06
human proBDNF Val66, furin cleavage-resistant (FCR) (natural protein)	8.62	0.00394	1.88e+06	8.65	0.004	1.79e+06	8.54	0.00746	2.48e+06
brain-derived neurotrophic factor (BDNF) (ligand)	9.21	0.00251	4.44e+06	–	–	–	8.19	0.0217	3.8e+06
